Measured values as given in patent publication EP3988566A1.

Columns and labels:
amyloid beta 1-42 fibers = amyloid beta 1-42 fibers (UniProt P05067); assay: cell-based or functional assay
[1] = target: amyloid beta 1-42 monomers (UniProt P05067); assay: cell-based or functional assay
Sequence of amyloid beta 1-42 monomers (P05067 672-713 limits assumed): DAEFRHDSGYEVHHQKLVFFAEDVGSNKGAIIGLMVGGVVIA

Sequence of amyloid beta 1-42 fibers (P05067 672-713 limits assumed): as above

disaggregation of pre-aggregated Aβ1-42, thioflavin T assay, antibody to Aβ1-42 molar ratio 1:10 (amyloid beta 1-42 fibers): 31.9%
disaggregation of pre-aggregated Aβ1-42, thioflavin T assay, antibody to Aβ1-42 molar ratio 1:100 (amyloid beta 1-42 fibers): 23.9%
inhibition of Aβ1-42 aggregation, thioflavin T assay, antibody to Aβ1-42 molar ratio 1:10 [1]: 80.4%
inhibition of Aβ1-42 aggregation, thioflavin T assay, antibody to Aβ1-42 molar ratio 1:100 [1]: 30%
Substance: humanized anti-human amyloid beta monoclonal antibody hC2
